From patent US20060281901

Target: ubiquitin-amyloid-β peptide fusion protein (H6Ub-Aβ42)

B1: yeast ubiquitin hydrolase-1 (YUH-1) (protein)
chain: MSGENRAVVPIESNPEVFTNFAHKLGLKNEWAYFDIYSLTEPELLAFLPRPVKAIVLLFPINEDRKSSTSQQITSSYDVIWFKQSVKNACGLYAILHSLSNNQSLLEPGSDLDNFLKSQSDTSSSKNRFDDVTTDQFVLNVIKENVQTFSTGQSEAPEATADTNLHYITYVEENGGIFELDGRNLSGPLYLGKSDPTATDLIEQELVRVRVASYMENANEEDVLNFAMLGLGPNWE
With B1 the “electrophoresis with Coomassie staining of the enzyme reactant (cleavage of the fusion protein by ubiquitin hydrolase)” value was “the binding site between ubiquitin and amyloid-β peptide in the fusion protein is precisely cut by the action of ubiquitin hydrolase and the fusion protein is separated into a ubiquitin fragment and an amyloid-β peptide fragment”.
